For two molecules, Kd results are on record in PMC12042621 (Structure (London, England : 1993), 2025).

The term Kd denotes the concentration at which binding is half-saturated. Read a low Kd as higher affinity.

For this experiment, the target named is SARS-CoV-2 spike S1 (SARS-CoV-2, wild type (Wuhan-Hu-1), UniProt P0DTC2). Kind of experiment: SPR. For orientation: Surface plasmon resonance follows binding to a sensor surface in real time, without labels.

B1: S1-RBD-14_(E89K) (VHH)
VHH: QVQLVESGGGLVQAGGSVRLSCAASGRSFSINPMGWFRQAPGKEREFVAAISWSGSKTVYVDSVKGRFSISRDNAKNTVYLQMNSLKPEDTAVYHCAVASRGPVYGANYVPGPHEYEYWGQGTQVTVS
With B1, the Kd came to 0.3 nM.

B2: S1-RBD-42_(E88K) (VHH)
VHH: QVQLVESGGGLVQAGGSLRLSCVVSGSTFSNTFMDWYRQAPGKQREFVATISSGGTTNYAVFVKGRFTISRDGAKNTVYLQMNSLKPEDTAVYYCHAALPIGGDYWGQGTQVTVS
The molecule B2 registered a Kd of 0.1 nM.
